Source: publication PMC9067375, “Biochemical and crystallization analysis of the CENP-SX–DNA complex” (Acta Crystallographica. Section F, Structural Biology …, 2022)

Molecular target: T1, CENP-S (MHF1), chicken, full-length (Gallus gallus)
T1 construct: CENP-S (MHF1), Gallus gallus, from cDNA; called full-length CENP-S; source: E. coli One Shot BL21(DE3) pLysS RARE2; prepared according to previous reports
T1 chain: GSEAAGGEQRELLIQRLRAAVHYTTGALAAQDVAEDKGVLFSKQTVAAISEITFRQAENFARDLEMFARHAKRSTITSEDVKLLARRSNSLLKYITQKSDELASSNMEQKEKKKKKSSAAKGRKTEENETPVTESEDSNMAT
Assay: SDS-PAGE of the contents of crystals; crystals grown from the FANCM–CENP-SX pentamer (50 µM) with dsDNA in about 30% 1,4-dioxane, 293 K; crystals, solution and film analysed by 15% SDS–PAGE, Coomassie Brilliant Blue
Settings: both partners purified

binding result: binds
B1: CENP-X (MHF2), chicken (natural protein, Gallus gallus)
chain: GYEEREGGFRKETVERLLRLHFRDGRTRVNGDALLLMAELLKVFVREAAARAARQAQAEDLEKVDIEHVEKVLPQLLLDFV
notes: CENP-X (MHF2), Gallus gallus, from cDNA; source: E. coli One Shot BL21(DE3) pLysS RARE2; prepared according to previous reports
